The source of these data is patent US4493829A, “Bio-available succinylated protein-iron derivatives which do not cause gastric lesions, method of preparation and related pharmaceutical compounds” (Italfarmaco S.p.A., priority 1982, dated 1985).

The nature of data set [1]: Haematic levels after oral administration: Ferrolat-ferrous sulphate comparison. Also on record: species or system male Wistar rats. As to conditions: rat, in vivo, 1 mg/kg. Here is the method:
Male Wistar rats, weighing approximately 200 grammes and starved for 18 hours were taken, randomized and separated into groups of 5; each group had been sacrificed at the determined hour and blood was taken from each animal by resecting the carotid; the amount of iron in the blood of each animal of the group was determined spectrophotometrically by means of bathophenanthrolinsulphonic acid (Fe-test, Wako). The administration was carried out by a probe in an acqueous solution (5 ml/kg).
The succinyl ferroprotein derivative which was used was prepared as in example 1 (Ferrolat). It can be seen that the quantity of iron/kg. was the same for both the derivatives (Fe: 1 mg/kg).

For data set [2] the following is noted: cited from earlier work.
For data set [3] the following is noted: ferritin based treatment; cited from earlier work.
Data set [4] can be described thus: Haematic levels after oral administration: Ferrolat-ferritin comparison. Conditions: 1 mg/kg Fe oral. Type of data set: in vivo, male Wistar rats. Here is the method:
Male Wistar rats, weighing approximately 200 grams and starved for 18 hours, were taken, randomized and separated into groups of 9; each group was sacrificed at the determined hour and blood was taken from each animal by resecting the carotid. The amount of iron in the blood of each animal of the group was determined spectrophotometrically by means of the Iron Colorimetric Method (Boehringer-Mannheim). The administration was carried out by a probe in an acqueous solution (5 ml/kg). Dosages and results are shown in table X. It can be seen that the quantity of iron/kg for the succinyl ferroprotein derivative indicated as Ferrolat was that of ferritin (Sigma, St. Louis, Mo.) and equal to 1 mg/kg.

Data set [5] can be described thus: Haematic levels: comparison between succinyl ferroprotein derivatives from different types of proteins. Type of data set: in vivo, male Wistar rats. Conditions: two hours after administration, 1 mg/kg Fe oral. On the procedure:
Male Wistar rats, weighing approximately 200 grams and starved for 18 hours, were taken, randomized and separated into groups of 5 (one per dose of derivative and a control group). Each group was sacrificed two hours after administration and, by resecting the carotid, blood was taken from each animal and the iron content in the blood was determined by means of bathophenanthrolinsulphonic acid Fe-test, Wako). The oral administration was carried out by a probe in an aqueous solution (5 ml/kg). The doses of individual derivatives which were used were selected so that 1 mg/kg of Fe was always administered.

Regarding `O=S(=O)([O-])[O-].[Fe+2]` [FeSO4 7H2 O, ferrous sulphate], the Serum iron is on record as 336.27 μg % in data set [1] (0.5 h); 272.14 μg % in data set [1] (1 h); 273.56 μg % in data set [1] (2 h); 129.50 μg % in data set [1] (4 h); 80.52 μg % in data set [1] (6 h).

On to Ferritin, for which, in data set [2], the solubility in water entry is “soluble in water”. In addition, the gastrointestinal side effects result in data set [3] is recorded as “does not result in the gastrointestinal side effects”. In addition, the Serum iron in data set [4] (1 hour after treatment) is 168.79 μg/100 ml; in data set [4] (2 hours after treatment) it was 170.66 μg/100 ml; in data set [4] (4 hours after treatment), 148.08 μg/100 ml; in data set [4] (6 hours after treatment) it was 89.22 μg/100 ml.

B1: Succ. ovalbumin: iron derivatives from succinylated egg proteins (ovalbumin) (protein, UniProt P01012 2-386, looked up)
Ovalbumin: GSIGAASMEFCFDVFKELKVHHANENIFYCPIAIMSALAMVYLGAKDSTRTQINKVVRFDKLPGFGDSIEAQCGTSVNVHSSLRDILNQITKPNDVYSFSLASRLYAEERYPILPEYLQCVKELYRGGLEPINFQTAADQARELINSWVESQTNGIIRNVLQPSSVDSQTAMVLVNAIVFKGLWEKAFKDEDTQAMPFRVTEQESKPVQMMYQIGLFRVASMASEKMKILELPFASGTMSMLVLLPDEVSGLEQLESIINFEKLTEWTSSNVMEERKIKVYLPRMKMEEKYNLTSVLMAMGITDVFSSSANLSGISSAESLKISQAVHAAHAEINEAGREVVGSAEAGVDAASVSEEFRADHPFLFCIKHIATNAVLFFGRCVSP
modifications: 95% succinylated, iron derivative 3.6% Fe
As for B1, the “serum iron average values ± SE” value in data set [5] is 235.82 ± 46.06 μg/100 ml.
